Test results from patent US6673902B2, “Cyclin D binding factor, and uses thereof” (St. Jude Children's Research Hospital, priority 1996, dated 2004).

B1: Fli1: Ets family member (protein, UniProt P26323 1-452, looked up)
Friend leukemia integration 1 …: MDGTIKEALSVVSDDQSLFDSAYGAAAHLPKADMTASGSPDYGQPHKINPLPPQQEWINQPVRVNVKREYDHMNGSRESPVDCSVSKCNKLVGGGEANPMNYNSYMDEKNGPPPPNMTTNERRVIVPADPTLWTQEHVRQWLEWAIKEYGLMEIDTSFFQNMDGKELCKMNKEDFLRATSAYNTEVLLSHLSYLRESSLLAYNTTSHTDQSSRLNVKEDPSYDSVRRGAWNNNMNSGLNKSPLLGGSQTMGKNTEQRPQPDPYQILGPTSSRLANPGSGQIQLWQFLLELLSDSANASCITWEGTNGEFKMTDPDEVARRWGERKSKPNMNYDKLSRALRYYYDKNIMTKVHGKRYAYKFDFHGIAQALQPHPTETSMYKYPSDISYMPSYHAHQQKVNFVPSHPSSMPVTSSSFFGAASQYWTSPTAGIYPNPSVPRHPNTHVPSHLGSYY
B2: ARF: ARF tumor suppressor protein (protein)
chain: MGRRFLVTVRIQRAGRPLQERVFLVKFVRSRRPRTASCALAFVNMLLRLERILRRGPHRNPGPGDDDGQRSRSSSSAQLRCRFELRGPHYLLPPGARRSAGRLPGHAGGAARVRGSAGCARCLGSPAARLGPRAGTSRHRAIFAFRWVLFVFRWVVFVYRWERRPDRRA

What was measured:
[1] = tested on: 281 bp ARF promoter fragment; assay: Transactivation of ARF promoter-luciferase reporter in NIH-3T3 cells; type: cell-based, mouse; conditions: NIH-3T3, 281 bp ARF promoter fragment-luciferase
Procedure: Transactivation assays. NIH-3T3 cells were transfected with 4 μg of pGL2-ARFpro BamHI or its DMP1 binding site mutant, with or without increasing amount of pFLEX-DMP1, pEVRFO-Ets1, pCMV-Ets2, pRcRSV-Elfl, pdEB-Fli1, p(IEB-EWS-Fli1 or pCMV-E2F-1 (89-437), and 4 μg β-actin SEAP control vectors [Inoue and Sherr, Mol. Cell. Biol. 18: 1590-1600 (1998); Inoue et al., J. Biol. Chem. 273:29188-29194 (1998); Davis and Roussel, Gene 171:265-269 (1996); Baily et al., Mol. Cell. Biol. 14:3230-3241 (1994)]. Transfections and normalization of luciferase levels with internal control SEAP levels were performed as described [Inoue and Sherr, Mol. Cell. Biol. 18:1590-1600 (1998)].
Similarly, DMP1 deletion mutants defective in transactivation [Inoue and Sherr, Mol. Cell. […] Mutation of the DMP1 binding site within the ARF promoter [changing CCCGGATGC, (SEQ ID NO:33) to CCCGTCGAC, (SEQ ID NO:42)] also completely abolished transactivation by wild-type DMP1 (FIG. 14C, mutant reporter). Therefore, sequences within the −189 to −181 ARF promoter segment were the only ones responsible for DMP1-mediated transactivation. Although Ets1 could bind to a 23 base pair oligonucleotide containing the DMP1 consensus site (FIG. 14B), several Ets proteins were unable to induce significant reporter gene expression from the more complex 281 base pair ARF promoter (FIG. 14C). […]

wild-type MEFs = assay: Apoptosis assay in wild-type MEFs deprived of serum; type: cell-based, mouse
Procedure: Apoptosis assays. Wild-type MEFs infected with the indicated retroviruses for 36 hours were starved for serum for 24 hours. Viability was determined by trypan blue dye exclusion, and DNA fragmentation was monitored by a terminal deoxynuclectidyl transferase (FACS-TUNEL) assay and by measurement of subdiploid DNA content of propidium iodide-stained nuclei [Zindy et al., Genes Dev. 12:2424-2433 (1998)].
On the other hand, MEFs overexpressing c-Myc, E2F-1, or E1A are exquisitely sensitive to apoptosis. […] 12:2424-2433 (1998); De Stanchina et al., Genes Dev. 12:2434-2442 (1998)].

| Molecule | ARF promoter reporter gene expression [1] | apoptosis / cell death (wild-type MEFs) |
| --- | --- | --- |
| B1 | minimal activity |  |
| B2 |  | did not trigger apoptosis |
